According to article PMC12328743:
Bridges are numbered along the chain shown (N, C = ends). Where no end group is shown, it is not given here.

Target: staphylococcal TMcin-G1905 (mature transmembrane helix-containing bacteriocin peptide, processed product of TmcA) (Staphylococcus aureus (isolate G1905))

B1: staphylococcal TMcin-G1905 (mature transmembrane helix-containing bacteriocin peptide, processed product of TmcA) (peptide)
chain: AWFVVLLAAILVFATAIFAGLTIWCVVNQHGKFTGNWNWHIKGVSLDVECKR
modifications: disulfide 25-50
- discrete stepwise conductance events in voltage-clamped planar lipid bilayers (DPhPC, 150 mM KCl) after adding purified TMcin-G1905; median conductance: 10.8 nS
